# Assay: soluble on expression in E. coli; label from the status in PepcDB or PDB records
row,Sequence,soluble on expression in E. coli
1,PNLTEISKKITESNAVVLAVKEVETLLASIDELATKAIGKKIGNNGLEANQSKNTSLLSGAYAISDLIAEKLNVLKNEELKEKIDTAKQCSTEFTNKLKSEHAVLGLDNLTDDNAQRAILKKHANKDKGAAELEKLFKAVENLSKAAQDTLKNAVKELTSPIVA,soluble
2,PPKWKVKKQKLAEKAAREAELTAKKAQARQALSIYLNLPTLDEAVNTLKPWWPGLFDGDTPRLLACGIRDVLLEDVAQRNIPLSHKKLRRAMKAITRSESYLCAMKAGACRYDTEGYVTEHISQEEEVYAAERLDKIRRQNRIKAELQAVLD,soluble
3,PQMKTLETRSCILRPASLDDVEDFFDCYKNKIVVKHLPFSEHKSLEDTRKFIKSFFLNPYKKGKIGHFAIVYKRDNKVIGNMGFNNINPKALEAEIGICINPSYWGHDFATEITKRVIQYGFRELNLNKIIAITYEENQNSTKSLDLLGFKCTGKYIKKIHTGNTVKNVPCYQYELKKQ,not soluble
4,PRTVKELTVSAGDNLIITLPDNEVELKAFVAPAPPVETTYNYEWNLISHPTDYQGEIKQGHKQTLNLSQLSVGLYVFKVTVSSENAFGEGFVNVTVKPAR,soluble
5,PSEHLEHLFQYIVNDDKTYMKKLVSGHGIVDPTNPYEEFKLTKLQAAIQRKIGYTFDPKSERLLPPTLTELEKGNAVLAHHLIQSFSPEDDLTPEKIHEIGYNTVMELTGGEYEFVIATHVDKEHLHNHIIFSSTNLKTGKAFRWQKGTKKVFEQISDKIAAKEGAKIIEKSPKQTHTKYTKWQTESIYKQKIKSRLDFLLEQSSSINDFLEKAEALNLSADFSNKWTTYRLLDEPQIKNTRSRSLSKSDPTRYNYEKIIERLKENKNVL,not soluble
6,PSVQVPQSTILYASDGSKLGETNYGEKRYWVPLKDMNPTIVKATVAIEDQNFYDHHGFDYKRMAGAALADLKAFAKVQGASTITQQYARNLYLEHDKTWKRKWNEAFYTIRLEQNYSKDEILEGYLNTIYYGHGAYGIEAASRLYFGKHAKNLTDAEAALLAGIPKGPSGY,not soluble
7,PTGNNAEICLLPLDYGPCRALLLRYYYDRYTQSCRQFLYGGCEGNANNFYTWEACDDACWRIE,soluble
8,QDWLTFQKKHITNTRDVDCDNIMSTNLFHCKDKNTFIYSRPEPVKAICKGIIASKNVLTTSEFYLSDCNVTSRPCKYKLKKSTNKFCVNCANQAPVHFVGVGSC,soluble
9,QEARTGNDIAQLPAISVTGREISDLTEGTNAYTTEAMSTATGLTLSPRETPQSVSVVTRQQIEDQGLTDTGAILATAPGISVTRSDSNRYSFSARGFTIDNFQFDGLVSPILSQWNYGSTDMDAAIYDHVEIVRGATGLMTGSGNPSAAVNFVRKRPLREFAATFNASVGSWDYVRGDADISVPITEDGRIRSRLVAAYSQGDSYVHFLDTRRRTFYGVVSADLTPDTVLTTSVEYQHNHSNGFGSGFPLFYSDGSRTDFNRSVANNAPWARQDTEATTYFVDLTHRFTNDWKLRAAYSHTDGRYLMKHVYRGGYPDRHTGIIAAPPAFSNYDGNLDRDDIHFSLSAPFEAFGLRHEVALGWMSIDNHSDIQRYAMVGPAPAIGSFFDWRRAGSHHHHHHHIQEPSWADTLSPADDVRTKQTGAYLVGRFALAEPLHLIVGDRWSDWKTKQMYFGSRREYRIKNQFTPYAGLTYDINDTYTAYASYTEIFQPQNARDTSGGILPPIKSKSYELGLKAAYLEGRLNTSAALFQTRQDNLAQVIPGSSIPGFPNMQASRAASGAKVEGIDLEASGQILPDWNIGASYTHFTTKDASGNPINTNHPRSLFKLYTTYRLPGALHRLTVGGGVDWQSRMYQAAASPRGNVEVEQDSYALVSLMARFDFNKKLSATLNVNNLFDKKYYDQIGFYSQGWWGAPRNVMLNLRAQY,soluble
10,QEPFHVVTPLLESWALSQVAGMPVFLKCENVQPSGSFKIRGIGHFCQEMAKKGCRHLVCSSGGNAGIAAAYAARKLGIPATIVLPESTSLQVVQRLQGEGAEVQLTGKVWDEANLRAQELAKRDGWENVPPFDHPLIWKGHASLVQELKAVLRTPPGALVLAVGGGGLLAGVVAGLLEVGWQHVPIIAMETHGAHCFNAAITAGKLVTLPDITSVAKSLGAKTVAARALECMQVCKIHSEVVEDTEAVSAVQQLLDDERMLVEPACGAALAAIYSGLLRRLQAEGCLPPSLTSVVVIVCGGNNINSRELQALKTHLGQ,soluble
11,QIIKDVVVWKTSLQDSDTPEKTLVFTATIKPGWHLYDQNLPEDGPTSTEFLFDKMTGAKLVGKAIPDKAPVNRYDKQFEMDLRWYEKTVSFRQKIQVTDPAKFSIKGGVRFMACNDENCLPPETSDFSFDASMIKSKAAAPDTEAEAAEAVAAETAADTTSQTDAAEALSSKADLWTPVVSELRAYGDDTLKQAESAPWKIFLYG,not soluble
12,QKGRVETRRVVHIMDFQRGKNLRYQLLQLVEPFGVISNHLILNKINEAFIEMATTEDAQAAVDYYTTTPALVFGKPVRVHLSQKYKRIK,soluble
13,QKKVNVTGAVGMVSAEALEARPVANASQALQGVVPGLNLTVGNNGGALDGTLNMNIRGAGTIGDGSGSSPLVLIDGIEGDLNTVNPNDIESVSVLKDAASASIYGARASFGVILVTTKSGKSG,not soluble
14,QNLGAAVAILGGPGTVQGVVRFLQLTPERCLIEGTIDGLEPGLHGLHVHQYGDLTNNCNSCGNHFNPDGASHGGPQDSDRHRGDLGNVRADADGRAIFRMEDEQLKVWDVIGRSLIIDEGEDDLGRGGHPLSKITGNSGERLACGIIARSAGLF,soluble
15,QPSLLDRLVDDEPWRRSEAPEAALLTHAGLRAAVLRDLRWLLNTVNLASSQDLAPYRHVPASSVNFGVRAMAGRRMSEIDWVDVETSIRDAIAAFEPRILESSVEVRCVSDTRTLEHHNVLSLEIRGMLWCVPHPREFLFRTDIDLE,not soluble
16,QRDIPVQFIVAGVKRSDLRNLVEERIRKEGTKTREIRYREIGHYNGSVENIHLSVDKYEAAGGTEYFISYVTDDDHIVGFVRLRQPSEMAHRQEMLGSAIVRELKVFGQEVPVGRRDLKNWQHHGYGMRLMEEAERIARDDLGLDRILVISGIGVRQYFRKIGYEDLGPYVAKSLK,not soluble
17,QRHADLIAARAGRPVTITAVCARDRSKNRDADLSGYAWETDAVALAQRADIDVFVEVMGGSEGAARASTEAALAAGKDVVTANKALLAHHGQALAEMAEAAGLAIRFEAAVAGGIPVIKALTEGLAGNQMRRVMGVMNGTCNYILTR,not soluble
18,QRKNNNKRWYFTREQLENSPSRRFGLDPDKELSYRQQAANLLQDMGQRLNVSQLTINTAIVYMHRFYMIQSFTRFHRNSVAPAALFLAAKVEEQPKKLEHVIKVAHTCLHPQESLPDTRSEAYLQQVQDLVILESIILQTLGFELTIDHPHTHVVKCTQLVRASKDLAQTSYFMATNSLHLTTFSLQYTPPVVACVCIHLACKWSNWEIPVSTDGKHWWEYVDATVTLELLDELTHEFLQILEKTPNRLKRIWNWRACQAAKKT,soluble
19,QSRGEKRTAHNAIEKRYRSSINDKIIELKDLVVGTEAKLNKSAVLRKAIDYIRFLQHSNQKLKQENLSLRTAVHKSKSLKDL,soluble
20,QTITIKGQVLDEKKQPVSYASVVISTDSLSKKDISYAVTDEHGQFRIGQLSAIPDKRWIHVRSIGYLGFHKQISLRAVKSPLDITLTEDTKELEEVVVVARARDAYAKGDTIVFNSKNYTLGNERNLGDVVKKMPGMEVDQTGNISYQGKKIGKVLVDGQDILSSSSGVAMNTLPPDFANSIELLSNYTDGDIAHAFKAEEQLALNLKSNKKVALSGSFEGGGGLKDKFISKASLITVLPKISASTIINANNTGEAVFSIQDYMSNIIDFESIRSGASTQTSLSLSPEEQQLLLPPTNEHARTAGLANINISWTPHSSYKLRASTLFNKGKSEGAHTKTDTYTLPENYFTNISTGTADKETQLVSQYLSQKWIPSRFFSVSAKTKIDIRNHNADNIYANTFNDNHIHALEKPKNHFSGIKQDIEMKWLLSKGLLFGGGSFVFNKGKINSDIYTDVLLLPLPHINGNSIYPYFHEHIKKDMEKGFNAYVGGMYPVLNNIYLRGEFSMSMNWNELKMAYPTSINEETADLRVFRPYISLMKNKGVFRFNIGSYFSSYRQKTSPELLREKSLFYIEPHASIELVMSNQHRLMLSVSEAVSPSTIDYFSQQILAKGYNNLQLPSKLSNPFAKRFKGNLSYAYFSLFNRLSMYGNLSYIKDRDTHITVTTSKGLLISNFYQDGGWSNTLRTNAYLSKGIGTLPLDIKLSGKYTLSKHNLMRVDKEDELINKRVDAKLDLISRLYQSPVNFEIGVRFSRLDQKFTYSNIHSWNQE,not soluble
21,RADPDPMKNTCKLLVVADHRFYRYMGRGEESTTTNYLIELIDRVDDIYRNTAWDNAGFKGYGIQIEQIRILKSPQEVKPGEKHYNMAKSYPNEEKDAWDVKMLLEQFSFDIAEEASKVCLAHLFTYQDFDMGTLGLAYVGSPRANSHGGVCPKAYYSPVGKKNIYLNSGLTSTKNYGKTILTKEADLVTTHELGHNFGAEHDPDGLAECAPNEDQGGKYVMYPIAVSGDHENNKMFSQCSKQSIYKTIESKAQECFQERSNKVGSHHHHHH,soluble
22,RAETAVQRTEDRYHNLVDTAPIPILLFDRDWKALYANEAAIAFLDADSFTEIAGKKASDFLHPDERDAARKRFQRLMREGVSVPEREYRVMTAEGEVKTATIATAPGYYRGEQVAQAMVYR,soluble
23,RAHQRWREHALAVIKDKMYNHIGSILVFLPGVADIRFLLDSLMAQKVEGVKICPLFGELSLKEQQQAIAPCLSGHRKIVLATNIAETSLTIDGIDLVIDCGLEKVAVFDSASLMNKLMQKQISKASAVQRAGRAGRLMHGQCIRLYGKDDFERR,not soluble
24,RCPELYRGVVMLDSPVLGLADKLFIRAAKRLGFIDRITPAGRTLGRRDAFADLDAARTYFASKTLFRRFDPDCLTAYLQHGLQQDGEQLRLRFDPATEISIYRSIPHTSPLPSRQLKVPLAMVRGKHSRVIMPHHGYLARRMRDGEYLSMPGGHMFPLERPDETAQLLKSLFARWDA,not soluble
25,RDVVGVGFGPANLALAIAIEEHNAECPPRERISAQFFEKQDRFGWHPGMLLDGATMQIAFPKDLVTFRNPRSAFTFFNYLFDQGRLVDFVNHQTFFPTRHEFHDYLQWAARRVDADVRYGTAVETVRGIRGDDGVIDRFEVRTADGSTVIARNVVMGAGLRERIPEWANPSARCFHNHQFLFRLGEMPAPVHHRFVVLGAGQSAAEIVQYLHGN,not soluble
26,REATWVTEKPLTLKIHMHFRDKWVWDENWPVAREVARLTNVKLVGVANRAATNSQEQFNLMMASGQLPDIVGGDNLKDKFIRYGMEGAFIPLNKLIDQNAPNLKAFFKTHPEVQRAITAPDGNIYYLPYVPDGLVSRGYFIRQDWLDKLHLKTPQTVDELYTVLKAFKEKDPNGNGKADEIPFINRDPEEVFRLVNFWGARSTGSNTWMDFYVENGKIKHPFAEVAFKDGIKHVAQWYKEGLIDPEIFTRKARSREQTFGNNIGGMTHDWFASTALFNDALSKNIPGFKLVPMAPPINSKGQRWEEDARQIPRPDGWAITATNKNPVETIKLFDFYFGPKGRELSNFGVPGLTYDIKNGKPVYKDTVLKAAQPVNNQMYDIGAQIPIGFWQDYEYERQWTNDVALQGIDMYIKNKYVLPQFTGVNLTVEEREIYDKYWPDVKTYMFEMGQSWVMGTKDPEKTWNDYQQQLKNRGFYQVMIVMQKAYDRQY,soluble
27,REIADNTYIVLGTMTLNDFNEYFETDLESDNVDTIAGFYLTGVGTIPSQEEKEHFEVESNGKHLELINDKVKDGRVTKLKILVSEVEEKEDEKD,not soluble
28,RGIPQITGPTTVNGLERGSLTVQCVYRSGWETYLKWWCRGAIWRDCKILVKTSGSEQEVKRDRVSIKDNQKNRTFTVTMEDLMKTDADTYWCGIEKTGNDLGVTVQVTIDPAPVTQEETSSSPT,soluble

# Source: the DeepSol protein solubility set
